Tests used:
[1] = viscosity (falling ball micro viscometer); Tpm alone at 1.0 or 2.0 mg/mL; 30 mM Hepes-Na pH 7.3, 100 mM NaCl, 2 mM DTT; 20 °C; excess viscosity over buffer (1.0412 mPa∙s) as measure of head-to-tail interaction between Tpm dimers; conditions: other: viscosity (falling ball micro viscometer)
[2] = target: F-actin from rabbit skeletal muscle, stabilised by phalloidin (rabbit) (UniProt P68135); test: temperature dependence of light scattering; 20 uM F-actin stabilized by 20 uM phalloidin and 10 uM Tpm; 30 mM Hepes-Na pH 7.3, 100 mM NaCl, 2 mM DTT; heating 1 °C/min; light scattering at 90 degrees, 350 nm; T_diss = temperature of 50% decrease
[3] = target: F-actin from rabbit skeletal muscle, stabilised by phalloidin (rabbit) (UniProt P68135); test: co-sedimentation; 10 uM phalloidin-stabilized F-actin mixed with increasing Tpm (0 to 5.5-6 uM; up to almost 40 uM for Tpm1.12); 30 mM Hepes-Na pH 7.3, 200 mM NaCl; 40 min at 25 °C; 100,000 x g for 40 min; SDS-PAGE of pellet and supernatant; K50% = Tpm concentration at which actin is half-saturated
P09493 = test: viscosity (falling ball micro viscometer); Tpm alone at 1.0 or 2.0 mg/mL; 30 mM Hepes-Na pH 7.3, 100 mM NaCl, 2 mM DTT; 20 °C; excess viscosity over buffer (1.0412 mPa∙s) as measure of head-to-tail interaction between Tpm dimers; conditions: other: viscosity (falling ball micro viscometer)

Chain of Tropomyosin isoform Tpm1.7 with Ala-Ser N-terminal extension (chain, as listed by the source): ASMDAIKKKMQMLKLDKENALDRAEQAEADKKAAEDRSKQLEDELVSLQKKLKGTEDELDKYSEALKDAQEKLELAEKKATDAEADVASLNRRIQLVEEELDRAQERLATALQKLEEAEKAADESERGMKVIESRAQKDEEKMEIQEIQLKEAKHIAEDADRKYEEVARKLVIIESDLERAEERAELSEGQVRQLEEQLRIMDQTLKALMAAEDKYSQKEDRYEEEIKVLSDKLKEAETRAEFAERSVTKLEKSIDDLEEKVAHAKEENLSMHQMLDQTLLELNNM
Chain of Tropomyosin isoform Tpm1.12 (chain, as listed by the source): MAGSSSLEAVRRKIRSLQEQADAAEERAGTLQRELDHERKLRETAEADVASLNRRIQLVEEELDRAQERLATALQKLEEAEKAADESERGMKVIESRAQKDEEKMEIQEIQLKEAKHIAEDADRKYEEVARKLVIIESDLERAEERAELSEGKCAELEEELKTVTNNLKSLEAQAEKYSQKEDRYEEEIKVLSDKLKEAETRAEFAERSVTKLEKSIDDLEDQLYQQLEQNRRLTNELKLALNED

Substance	excess viscosity at 1 mg/mL [1]	excess viscosity at 2 mg/mL [1]	T diss [2]	K50% [3]	excess viscosity at 1 mg/mL (P09493)	excess viscosity at 2 mg/mL (P09493)
Tropomyosin isoform Tpm1.5 with Ala-Ser N-terminal extension	0.179 mPa∙s	0.653 mPa∙s				
Tropomyosin isoform Tpm1.5 with Ala-Ser N-terminal extension (natural protein)			48.9 °C	1.11 µM		
Tropomyosin isoform Tpm1.6 with Ala-Ser N-terminal extension	0.474 mPa∙s	1.34 mPa∙s				
Tropomyosin isoform Tpm1.6 with Ala-Ser N-terminal extension (natural protein)			41.4 °C	0.45 µM		
Tropomyosin isoform Tpm1.7 with Ala-Ser N-terminal extension					1.03 mPa∙s	3.58 mPa∙s
Tropomyosin isoform Tpm1.12					0.026 mPa∙s	0.066 mPa∙s

Reference: paper PMC8152229
